The values that follow come from paper PMC5023729.

Assay [1] concerns the target F380L/F382L double mutant G3BP1 (human) (UniProt Q13283).
The target in assay [2] is FLAG-G3BP1 (human, wild type) (human) (UniProt Q13283).

With A4V mutant SOD1-3xHA (natural protein), the percentage of cells with SOD1 inclusions in which G3BP1 co-localizes (EGFP-tagged SOD1 and mCherry-tagged G3BP1 in G3BP1-null 293T cells) in assay [1] is 36.1%; in assay [2], 86.6%.
On the same counts, the results for “A4V/W32S double mutant SOD1 (natural protein)” are 14.7% and 49.1%.
